Test results reported in US20060233785A1, “Immunointeractive molecules and uses thereof” (priority 2001, published 2006).
Substitutions are numbered along the chain they refer to. Each block holds one molecule with its values, some of them ahead of it.

Tests used:
[1] = type: physicochemical
Text: Recombinant Hev b 6 (rHev b 6): The cDNA encoding Hev b 6 was cloned from latex RNA (Beezhold, unpublished). The deduced amino acid sequence of this clone is identical to that of the Hev b 6 clone pDHPROH 6 in Rozynek P et al., 1998, Clinical and Experimental Allergy 28:1418-1426 and differed at amino acid 126 (Thr versus Ala) from the deduced amino acid sequence of the Hev b 6 clone pDHPROH 1-2 (Genbank entry AJ003196.1). It differs at amino acids 109 (Pro versus Ser) and 161 (Leu versus Ile) from the deduced amino acid sequence of the Hev b 6 clone HEV1 (Genbank entry M36986.1), isolated by Broekaert W, Lee H, Kush A, Chua N-H, Raikhel N. Wound-induced accumulation of mRNA containing a hevein sequence in laticifers of rubber tree (Hevea brasiliensis). Proc Natl Acad Sci USA 1990; 87:7633-7637. The Hev b 6 cDNA was subcloned into the pPROEX-Hta vector (Invitrogen, CA, USA) by the polymerase chain reaction (PCR) following our standardised methods (Sutherland et al., 2002, supra). Primers HEVB6F (5′-[…]-3′) (SEQ ID NO:22) and HEVB6R (5′-[…]-3′) (SEQ ID NO:23) were used for the PCR. The plasmid construct was transformed into E. coli strain BL21-CodonPlus® (DE3)-RIL competent cells (Stratagene, CA, USA) by the heat shock procedure (Sambruk et al., 1989, supra). […]

IgE binding to rHev b 6 = test: Inhibition ELISA: IgE binding to rHev b 6; design: species or system human; conditions: for inhibitor concentration required to give 30% inhibition of IgE binding: estimated; for maximum inhibition of IgE binding to rHev b 6: third subject (FIG. 8D), 125 μg/ml inhibitor
Experimental: Inhibition ELISA were carried out to confirm the lack of IgE reactivity of mutant rHev b 6. Various concentrations of mutant rHev b 6 and rHev b 6, ranging from 0.0016 μg/ml to 125 μg/ml were preincubated with patient sera before the sera were used in ELISA to measure IgE binding to rHev b 6. Incubation of sera with KLH was used as a negative control. Values are presented as percent inhibition±standard deviation. (A) The Hev b 6-specific mAb 1A5.4 was incubated with KLH, mutant rHev b 6 and rHev b 6 and mAb binding to rHev b 6 detected. Sera from three latex-allergic, Hev b 6 sensitised subjects A7 (B), A6 (C) and A8 (D) were incubated with KLH, mutant rHev b 6 and rHev b 6 and IgE binding to rHev b 6 detected. The horizontal line indicates the level below which inhibition was considered to non-specific.
To confirm the lack of IgE reactivity of mutant rHev b 6, inhibition ELISA were performed. In these assays, IgE binding to rHev b 6 was inhibited by preincubation of sera from latex allergic, Hev b 6 reactive subjects with either rHev b 6 or mutant rHev b 6 over a range of concentrations. To determine the level of non-specific inhibition inherent in such an assay, an initial non-specific inhibition assay was performed. The serum of a latex-allergic, Hev b 5 positive subject was incubated with rHev b 6 and mutant rHev b 6 and then the ability of IgE from this serum to bind rHev b 5 in an ELISA was measured. When this assay was undertaken, binding of IgE to rHev b5 was inhibited at a maximum of 20% by rHev b 6 and mutant rHev b 6 (data not shown).

[2] = tested on: Hev b 6-specific mAb 1A5.4; test: Western blotting of rHev b 6 forms with Hev b 6-specific mAb (Example 8); type: binding, mouse
Experimental: FIG. 6 is an image of sulphonation abolishing the IgE reactivity of rHev b 6. rHev b 6 (A) and sulphonated rHev b 6 (B) were resolved by 16% SDS-PAGE under non-reducing conditions. Gels were either stained with Coomassie Brilliant Blue (1) or transferred to nitrocellulose. Strips with transferred protein were incubated with the Hev b 6-specific mAb 1A5.4 and binding detected (2). Strips with transferred protein were also incubated with sera from two latex allergic, Hev b 6 sensitized subjects (3 and 4) and one non-latex-allergic, atopic subject (5). The presence or absence of IgE binding was then detected. […] Plates were coated with rHev b 6 and sulphonated rHev b 6 and the presence or absence of IgE-binding detected. As a positive control the Hev b 6-specific mAb 1A5 was used. NB indicates no binding of IgE was detected.
Four μg of rHev b 6 or sulphonated rHev b 6 were separated on 16% sodium dodecyl sulphate (SDS) polyacrylamide gels with 4% stacking gel. Electrophoresis was performed at 125V for 2 h on a Novex Xcell II Mini-Cell system (Novex, CA, USA). Proteins were visualized with Coomassie Brilliant Blue R-250 (Sigma). The separated proteins were electrophoretically transferred to nitro-cellulose membranes (BA 0.45μ, Schleicher and Schuell, Dassel, Germany) at 25V for 1 hr in transfer buffer. Membranes were blocked for 1 h at RT in 10% skim milk powder (SMP) in PBS, washed once in 0.05% Tween20/PBS and twice in PBS. Washed membranes were incubated for 1 hour at RT with either culture supernatant containing the Hev b 6-specific mAb 1A5.4, diluted 1 in 100 in 1% SMP/PBS or human serum, diluted 1 in 5 in 1% SMP/PBS. For mAb detection membranes were washed as above and incubated for 1 h at RT with goat HRP-conjugated anti-mouse Ig (Silenus), diluted 1 in 2000 in 1% SMP/PBS. For IgE detection, membranes were incubated for 1 h at RT with rabbit anti-human IgE (Dako, Denmark) at 1 in 1000 dilution, followed by swine anti-rabbit IgG-HRP conjugate (Promega) at 1 in 1000 dilution. After washing, the binding of 1A5.4 mAb and patient serum IgE to rHev b 6 was detected using hydrogen peroxide/diaminobenzidine solution.

[3] = reducing SDS-PAGE (data not shown)

inhibitor concentration required to give 30% inhibition of IgE binding (IgE binding to rHev b 6): 0.01 µg/mL
inhibition of IgE binding to rHev b 6 (IgE binding to rHev b 6; higher inhibitor concentrations, FIGS. 8B, C and D): 100%
maximum inhibition of IgE binding to rHev b 6 (IgE binding to rHev b 6): 100%
B1: rHev b 6: recombinant Hev b 6 (prohevein) expressed in E. coli from pPROEX-HTa with 6-His tag (protein)
chain: EQCGRQAGGKLCPNNLCCSQWGWCGSTDEYCSPDHNCQSNCKDSGEGVGGGSASNVLATYHLYNSQDHGWDLNAASAYCSTWDANKPYSWRSKYGWTAFCGPVGAHGQSSCGKCLSVTNTGTGAKTTVRIVDQCSNGGLDLDVNVFRQLDTDGKGYERGHITVNYQFVDCGDSFNPLFSVMKSSVIN
modifications: left off: small tags and cut ends
notes: recombinant Hev b 6 (prohevein) expressed in E. coli from pPROEX-HTa with 6-His tag
solubility [1]: insoluble
Hev b 6-specific mAb reactivity in Western blotting ([2]; non-reducing SDS-PAGE): reactive
Hev b 6-specific mAb reactivity in Western blotting [2, 3]: reactive

B2: sulphonated rHev b 6: purified rHev b 6 sulphonated in sulphonation buffer to improve solubility (protein)
chain: B1 chain
modifications: left off: small tags and cut ends
solubility [1]: increased markedly
Hev b 6-specific mAb reactivity in Western blotting ([2]; non-reducing SDS-PAGE): reactive
Hev b 6-specific mAb reactivity in Western blotting [2, 3]: reactive

fold more inhibitor required to inhibit IgE binding as effectively as rHev b 6 (IgE binding to rHev b 6; at 30% inhibition): 12,500 fold
inhibitor concentration required to give 30% inhibition of IgE binding (IgE binding to rHev b 6): 125 µg/mL
maximum inhibition of IgE binding to rHev b 6 (IgE binding to rHev b 6): 32%
B3: mutant rHev b 6: rHev b 6 with cysteine to alanine substitution at amino acid 3 of the mature protein (protein)
chain: B1 chain with C3A
modifications: left off: small tags and cut ends
notes: rHev b 6 with cysteine to alanine substitution at amino acid 3 of the mature protein
inhibition of IgE binding to rHev b 6 (IgE binding to rHev b 6; two subjects (FIGS. 8B and C), 0.0016 to 125 μg/ml): failed to inhibit above the level determined for non-specific inhibition
